Laboratory results as given in publication PMC3597501 (2013).

Target: T1, GST-TUD1 (Oryza sativa subsp. japonica (Rice), UniProt Q10PI9)
T1 chain: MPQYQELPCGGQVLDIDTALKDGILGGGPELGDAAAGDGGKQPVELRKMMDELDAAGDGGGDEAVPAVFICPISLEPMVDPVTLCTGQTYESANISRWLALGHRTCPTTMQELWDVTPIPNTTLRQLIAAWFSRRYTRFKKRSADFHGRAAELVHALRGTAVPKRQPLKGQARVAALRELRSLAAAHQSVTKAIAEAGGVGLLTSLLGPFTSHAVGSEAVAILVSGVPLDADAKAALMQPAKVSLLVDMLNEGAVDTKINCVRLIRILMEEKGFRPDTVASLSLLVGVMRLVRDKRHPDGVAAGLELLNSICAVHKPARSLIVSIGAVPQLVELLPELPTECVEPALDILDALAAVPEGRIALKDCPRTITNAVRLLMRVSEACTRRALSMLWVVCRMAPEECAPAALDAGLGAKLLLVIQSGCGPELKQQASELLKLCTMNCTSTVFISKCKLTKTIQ
Test: GST pull-down

binding result: binds
B1: D1-tagged His (purified D1 fusion protein) (protein)
chain: MGSSCSRSHSLSEAETTKNAKSADIDRRILQETKAEQHIHKLLLLGAGESGKSTIFKQIKLLFQTGFDEAELRSYTSVIHANVYQTIKILYEGAKELSQVESDSSKYVISPDNQEIGEKLSDIDGRLDYPLLNKELVLDVKRLWQDPAIQETYLRGSILQLPDCAQYFMENLDRLAEAGYVPTKEDVLYARVRTNGVVQIQFSPVGENKRGGEVYRLYDVGGQRNERRKWIHLFEGVNAVIFCAAISEYDQMLFEDETKNRMMETKELFDWVLKQRCFEKTSFILFLNKFDIFEKKIQKVPLSVCEWFKDYQPIAPGKQEVEHAYEFVKKKFEELYFQSSKPDRVDRVFKIYRTTALDQKLVKKTFKLIDESMRRSREGT
